Experimental data: patent US20190276511A1 (BIONTECH RNA PHARMACEUTICALS, published 2019)
Read-outs that look alike come from different tables or passages of the source.

T1: CD27-Fc (human, UniProt P26842 20-191)
T1 construct: extracellular domain; hinge included for covalent assembly; also called CD27 receptor-Fc fusion protein; not shown: human Fc gamma 1 region including the hinge region
T1 sequence (looked up): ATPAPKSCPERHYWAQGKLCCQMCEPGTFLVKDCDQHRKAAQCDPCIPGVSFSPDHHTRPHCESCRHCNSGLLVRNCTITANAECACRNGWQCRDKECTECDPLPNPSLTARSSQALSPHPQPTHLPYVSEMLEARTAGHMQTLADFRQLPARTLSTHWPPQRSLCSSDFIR

T2: OX40-Fc (human, UniProt P43489 29-214)
T2 construct: extracellular domain; hinge included for covalent assembly; also called OX40 receptor-Fc fusion protein; not shown: human Fc gamma 1 region including the hinge region
T2 sequence (looked up): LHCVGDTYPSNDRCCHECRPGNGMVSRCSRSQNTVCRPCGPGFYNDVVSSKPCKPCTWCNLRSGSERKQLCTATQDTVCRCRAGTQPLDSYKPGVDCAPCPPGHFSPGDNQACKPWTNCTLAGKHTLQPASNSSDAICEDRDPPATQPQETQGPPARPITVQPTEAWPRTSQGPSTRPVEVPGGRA

T3: OX40 receptor on cells (human, UniProt P43489 29-277)
T3 sequence (looked up): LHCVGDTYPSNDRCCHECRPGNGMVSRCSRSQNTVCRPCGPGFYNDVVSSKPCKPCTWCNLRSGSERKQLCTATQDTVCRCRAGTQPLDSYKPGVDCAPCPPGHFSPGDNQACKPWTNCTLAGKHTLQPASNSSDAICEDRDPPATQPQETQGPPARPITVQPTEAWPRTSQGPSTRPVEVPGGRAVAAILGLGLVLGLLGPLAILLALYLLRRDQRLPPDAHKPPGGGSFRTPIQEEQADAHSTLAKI


Experiments:
[1] = biological target: T1, CD27-Fc; assay: ELISA, coated receptor-Fc
[2] = biological target: T4, 4-1BB-Fc (human, UniProt Q07011 24-186); assay: ELISA, coated receptor-Fc
T4 construct: extracellular domain; hinge included for covalent assembly; also called 4-1BB receptor-Fc fusion protein; not shown: human Fc gamma 1 region including the hinge region

[3] = biological target: T2, OX40-Fc; assay: ELISA, coated receptor-Fc
Procedure: (§1) Receptor binding of the Duokines was analyzed by ELISA using fusion proteins of the extracellular region of CD40, CD27, 4-1BB and OX40, respectively, with the human Fcγ1 region including the hinge region for covalent assembly (CD40-Fc, CD27-Fc, 4-1BB-Fc, OX40-Fc). Receptor-Fc fusion proteins (200 ng/well) were coated overnight at 4° C. and remaining binding sites were blocked with PBS, 2% skimmed milk powder (2% MPBS).

[4] = biological target: T5, CD40-Fc (human, UniProt P25942 21-193); assay: ELISA, coated receptor-Fc
T5 construct: extracellular domain; hinge included for covalent assembly; also called CD40 receptor-Fc fusion protein; not shown: human Fc gamma 1 region including the hinge region
Procedure: as §1

[5] = biological target: T3, OX40 receptor on cells; assay: cell-based or functional assay
[6] = biological target: T6, CD40 receptor on cells (human, UniProt P25942 21-277); assay: cell-based or functional assay
[7] = biological target: T5, CD40-Fc; assay: ELISA, coated receptor-Fc; remark: listed apart in the source
[8] = biological target: T1, CD27-Fc; assay: ELISA, coated receptor-Fc; remark: listed apart in the source
Procedure: as §1

[9] = biological target: T2, OX40-Fc; assay: ELISA, coated receptor-Fc; remark: listed apart in the source
Procedure: as §1, with “of the single-chain Duokines was” for “of the Duokines was”, “(2% MPBS). […] The interactions between scDuokine and receptor were dose-dependent with EC₅₀ values in the low nanomolar ranges (FIG. 11 AB, Tab. 2).” for “(2% MPBS).”

[10] = biological target: T5, CD40-Fc; assay: ELISA, coated receptor-Fc; remark: listed apart in the source
Procedure: as §1, with “of the single-chain Duokines was” for “of the Duokines was”, “(2% MPBS). […] The interactions between scDuokine and receptor were dose-dependent with EC₅₀ values in the low nanomolar ranges (FIG. 11 AB, Tab. 2).” for “(2% MPBS).”

[11] = biological target: T3, OX40 receptor on cells; assay: cell-based or functional assay; remark: listed apart in the source
[12] = biological target: T6, CD40 receptor on cells; assay: cell-based or functional assay; remark: listed apart in the source

T5 sequence (P25942 21-193 limits assumed): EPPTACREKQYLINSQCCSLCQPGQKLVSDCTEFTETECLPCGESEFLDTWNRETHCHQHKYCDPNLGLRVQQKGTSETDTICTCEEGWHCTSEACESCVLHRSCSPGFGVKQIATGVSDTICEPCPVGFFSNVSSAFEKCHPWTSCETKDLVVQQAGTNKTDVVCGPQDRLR
T6 sequence (P25942 21-277): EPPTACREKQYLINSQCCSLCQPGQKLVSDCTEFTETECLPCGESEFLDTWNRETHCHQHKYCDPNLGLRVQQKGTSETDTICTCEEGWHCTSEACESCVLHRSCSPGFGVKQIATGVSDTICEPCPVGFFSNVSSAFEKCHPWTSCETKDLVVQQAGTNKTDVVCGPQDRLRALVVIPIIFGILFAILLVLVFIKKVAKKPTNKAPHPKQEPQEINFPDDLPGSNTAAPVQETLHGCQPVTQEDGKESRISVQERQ

binding result [1]	binding result [2]	EC50 [3]	EC50 [4]	Receptor activation (EC50, nM) [5]	Receptor activation (EC50, nM) [6]	binding result [7]	EC50 [8]	EC50 [9]	EC50 [10]	Receptor activation (EC50, nM) [11]	Receptor activation (EC50, nM) [12]	Binder
no binding (tested: 100 nM (FIG. 4))	no binding (tested: 100 nM (FIG. 4))	0.51 nM	2.18 nM	0.7 nM	16.6 nM							CD40L-OX40L (ligand, Duokine from HEK293, FLAG-purified; VH leader left out; homotrimer by SEC; also called Duokine CD40L-OX40L; not shown: N-terminal FLAG tag) GDQNPQIAAHVISEASSKTTSVLQWAEKGYYTMSNNLVTLENGKQLTVKRQGLYYIYAQVTFCSNREASSQAPFIASLCLKSPGRFERILLRAANTHSSAKPCGQQSIHLGGVFELQPGASVFVNVTDPSQVSHGTGFTSFGLLKLGGGGSGGGGSGGGGSQVSHRYPRIQSIKVQFTEYKKEKGFILTSQKEDEIMKVQNNSVIINCDGFYLISLKGYFSQEVNISLHYQKDEEPLFQLKKVRSVNSLMVASLTYKDKVYLNVTTDNTSLDDFHVNGGELILIHQNPGEFCVL
	no binding (tested: 100 nM (FIG. 4))	3.16 nM		10.2 nM		no binding (tested: 100 nM (FIG. 4))	6.74 nM					CD27L-OX40L (ligand, Duokine from HEK293, FLAG-purified; VH leader left out; homotrimer by SEC; also called Duokine CD27L-OX40L; not shown: N-terminal FLAG tag) SLGWDVAELQLNHTGPQQDPRLYWQGGPALGRSFLHGPELDKGQLRIHRDGIYMVHIQVTLAICSSTTASRHHPTTLAVGICSPASRSISLLRLSFHQGCTIASQRLTPLARGDTLCTNLTGTLLPSRNTDETFFGVQWVRPGGGGSGGGGSGGGGSQVSHRYPRIQSIKVQFTEYKKEKGFILTSQKEDEIMKVQNNSVIINCDGFYLISLKGYFSQEVNISLHYQKDEEPLFQLKKVRSVNSLMVASLTYKDKVYLNVTTDNTSLDDFHVNGGELILIHQNPGEFCVL
no binding (tested: 100 nM (FIG. 10))	no binding (tested: 100 nM (FIG. 10))							2.13 nM	6.74 nM	0.51 nM	3.22 nM	scOX40L-scCD40L (ligand, scDuokine from HEK293, FLAG-purified; VH leader left out; also called single-chain Duokine scOX40L-scCD40L; not shown: N-terminal FLAG tag) QVSHRYPRIQSIKVQFTEYKKEKGFILTSQKEDEIMKVQNNSVIINCDGFYLISLKGYFSQEVNISLHYQKDEEPLFQLKKVRSVNSLMVASLTYKDKVYLNVTTDNTSLDDFHVNGGELILIHQNPGEFCVLGGGSGGGQVSHRYPRIQSIKVQFTEYKKEKGFILTSQKEDEIMKVQNNSVIINCDGFYLISLKGYFSQEVNISLHYQKDEEPLFQLKKVRSVNSLMVASLTYKDKVYLNVTTDNTSLDDFHVNGGELILIHQNPGEFCVLGGGSGGGQVSHRYPRIQSIKVQFTEYKKEKGFILTSQKEDEIMKVQNNSVIINCDGFYLISLKGYFSQEVNISLHYQKDEEPLFQLKKVRSVNSLMVASLTYKDKVYLNVTTDNTSLDDFHVNGGELILIHQNPGEFCVLGGGGSGGGTGGGGSGDQNPQIAAHVISEASSKTTSVLQWAEKGYYTMSNNLVTLENGKQLTVKRQGLYYIYAQVTFCSNREASSQAPFIASLCLKSPGRFERILLRAANTHSSAKPCGQQSIHLGGVFELQPGASVFVNVTDPSQVSHGTGFTSFGLLKLGGGSGGGGDQNPQIAAHVISEASSKTTSVLQWAEKGYYTMSNNLVTLENGKQLTVKRQGLYYIYAQVTFCSNREASSQAPFIASLCLKSPGRFERILLRAANTHSSAKPCGQQSIHLGGVFELQPGASVFVNVTDPSQVSHGTGFTSFGLLKLGGGSGGGGDQNPQIAAHVISEASSKTTSVLQWAEKGYYTMSNNLVTLENGKQLTVKRQGLYYIYAQVTFCSNREASSQAPFIASLCLKSPGRFERILLRAANTHSSAKPCGQQSIHLGGVFELQPGASVFVNVTDPSQVSHGTGFTSFGLLKL
